{"source": "paper PMC6102588", "about": "“Quaternary Structure, Salt Sensitivity, and Allosteric Regulation of β-AMYLASE2 From Arabidopsis thaliana” (Frontiers in Plant Science, 2018)", "molecules": {"B1": {"name": "Arabidopsis thaliana β-AMYLASE2 (BAM2), wild type, without chloroplast transit peptide (enzyme, UniProt O65258 56-542, looked up)", "chain": "AESTEEDRVPIDDDDDSTDQLVDEEIVHFEERDFAGTACVPVYVMLPLGVIDMNSEVVEPEELLDQLRTLKSVNVDGVMVDCWWGIVESHTPQVYNWSGYKKLFQMIRELGLKIQVVMSFHECGGNVGDDVHIQIPEWVREIGQSNPDIYFTDSAGRRNTECLTWGIDKQRVLRGRTALEVYFDYMRSFRVEFDEFFEEKIIPEIEVGLGPCGELRYPSYPAQFGWKYPGIGEFQCYDKYLMNSLKEAAEVRGHSFWGRGPDNTETYNSTPHGTGFFRDGGDYDSYYGRFFLNWYSRVLIDHGDRVLAMANLAFEGTCIAAKLSGIHWWYKTASHAAELTAGFYNSSNRDGYGPIAAMFKKHDAALNFTCVELRTLDQHEDFPEALADPEGLVWQVLNAAWDASIPVASENALPCYDREGYNKILENAKPLTDPDGRHLSCFTYLRLNPTLMESQNFKEFERFLKRMHGEAVPDLGLAPGTQETNPE", "notes": "β-amylase 2 (BAM2), Arabidopsis thaliana, NP_191958.3, lacking its predicted 55 amino acid N-terminal chloroplast transit peptide; the start at residue 56 is worked out from that statement; Expression vector in pETDuet-1; Predicted monomer mass without transit peptide is 57.1 kDa; also called WT BAM2; WT; source: E. coli BL21+, purified by the N-terminal 6-His tag"}, "B2": {"name": "BAM2 W456A mutant (Interface A) (enzyme, Arabidopsis thaliana, UniProt O65258 56-542, looked up)", "chain": "B1 chain with W401A", "notes": "β-amylase 2 (BAM2), Arabidopsis thaliana, NP_191958.3, lacking its predicted 55 amino acid N-terminal chloroplast transit peptide, with Trp456 changed to Ala; Made by QuikChange mutagenesis in the WT pETDuet-1 construct (Monroe et al., 2017); also called B2_W456A; source: E. coli BL21+, purified by the N-terminal 6-His tag"}, "B3": {"name": "BAM2 F238A mutant (Interface B) (enzyme, Arabidopsis thaliana, UniProt O65258 56-542, looked up)", "chain": "B1 chain with F183A", "notes": "β-amylase 2 (BAM2), Arabidopsis thaliana, NP_191958.3, lacking its predicted 55 amino acid N-terminal chloroplast transit peptide, with Phe238 changed to Ala; Made by QuikChange mutagenesis in the WT pETDuet-1 construct (Monroe et al., 2017); also called B2_F238A; source: E. coli BL21+, purified by the N-terminal 6-His tag"}}, "key": {"[1]": {"target": "BAM2 N-terminal deletion mutant (NDel), lacking the acidic region (Arabidopsis thaliana) (UniProt O65258)", "assay": "SEC-MALS; proteins at 1-2 mg mL^-1 injected into a 4.6 x 300 mm size-exclusion column, 0.5 mL min^-1, 10 mM MOPS, pH 7, 250 mM KCl; masses are averages, n = 3"}, "[2]": {"target": "the molecule itself", "assay": "SEC-MALS; proteins at 1-2 mg mL^-1 injected into a 4.6 x 300 mm size-exclusion column, 0.5 mL min^-1, 10 mM MOPS, pH 7, 250 mM KCl; masses are averages, n = 3"}}, "note": "Positions count from the first letter of the chain named. Names and notes keep the numbering of the source."}
{"molecule": "BAM2 N-terminal deletion mutant (NDel), lacking the acidic region (from UniProt O65258 86-542) (enzyme)", "values": [{"measurement": "stoichiometry N", "setting": "[1]", "value": 4}]}
{"molecule": "B1", "values": [{"measurement": "stoichiometry N", "setting": "[2]", "value": 4}]}
{"molecule": "B2", "values": [{"measurement": "stoichiometry N", "setting": "[2]", "value": 2}]}
{"molecule": "B3", "values": [{"measurement": "stoichiometry N", "setting": "[2]", "value": 2}]}
